According to patent US20180371433A1 (UNIVERSITY OF FLORIDA RESEARCH FOUNDATION, published 2018):

B1: UbaA of Hfx. volcanii (protein)
chain: MTLSLDATQLDRYSRHIIMDEVGPEGQGRLLSSRVVVVGAGGLGAPAIQYLAAVGVGELVVVDDDVVERSNLQRQVVHCDDDVGTPKAESAAAFVRGLNPDVSVEPVEARVDKSNVHEVVAGSDVVVDASDNFPTRYLLNDVCRFEGIPLVHGAIYKFEGQATTLVPDGPCYRCLFPEAPEPGTVPDCATTGVLGVLPGTVGCIQATEAMKLLLDEGEALDGRLLFYDAMDMTFETVPYRTNPDCPVCGEGGVDSIEDIDYVESCAISLD
B2: HvPPA with an N-terminal poly-histidine tag (His6-HvPPA) linked with a thrombin-cleavage site (enzyme)
chain: MVNLWEDMETGPNAPDEIYAVVECLKGERNKYEYDKDIPGVVLDRVLHSNVHYPSDYGFIPQTYYDDEDPFDVLVLVEDQTFPGCVIEARPVALMKMDDDGEQDDKVIAVPVEDPRYDHIEDLDDIPQQTLDEIDEFFATYKNLEAGKEVETLGWEDKQAAKDAIEHAMDLYEENFA
notes: Expressed in Hfx. volcanii H26-pJAM2920; Purified by Ni2+ IMAC and SEC as homo-hexamers (~134 kDa) and homo-trimers (~64 kDa); also called HVO_0729; Haloferax volcanii inorganic pyrophosphatase; not shown: N-terminal His6 tag and thrombin-cleavage site from vector pJAM503

Experiments:
[1] = target: T1, SAMP1 with deletion of the C-terminal diglycine residues (ΔGG), D4GUF6
T1 chain: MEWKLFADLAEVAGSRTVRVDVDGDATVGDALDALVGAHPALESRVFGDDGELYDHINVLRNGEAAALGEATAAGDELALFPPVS

[2] = target: T2, ubiquitin-like SAMP1, D4GUF6
T2 chain: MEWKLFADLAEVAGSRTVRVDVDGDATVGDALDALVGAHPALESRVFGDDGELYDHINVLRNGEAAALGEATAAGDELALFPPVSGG

[3] = target: the molecule itself; assay: size exclusion chromatography (Superdex 200); hexamers of ~134 kDa and trimers of ~64 kDa
Experimental: HvPPA (HVO_0729, UniProt: D4GT97) was expressed with an N-terminal poly-histidine tag (His₆) in Hfx. volcanii H26-pJAM2920 (Table 1). Hfx. volcanii cells were grown to stationary phase (OD₆₀₀ of 3-3.5) (4×1-liter cultures in 2.8-liter Fernbach flasks) and harvested by centrifugation (10-15 min at 9,200× g and 25° C.). Cell pellets were resuspended at 5 ml per g wet weight cells in Tris-salt buffer (20 mM Tris-HCl, pH 7.5, 2 M NaCl and 2.5 mM MgCl₂) supplemented with 40 mM imidazole and 1 mini-tablet protease inhibitor cocktail (Roche product no. 05892791001) per 10 ml buffer. Cells were lysed by passing through a French Press (three times at 20,000 psi). Whole cell lysate was clarified by centrifugation (twice for 30 min at 9,200× g and 4° C.) and sequential filtration using 0.8 μm and 0.2 μm cellulose acetate filters (Thermo Scientific Nalgene). Clarified cell lysate was applied to a HisTrap HP column (5 ml, 17-5248-01, GE Healthcare) pre-equilibrated and washed in 100 ml of Tris-salt buffer with 40 mM imidazole. Fractions containing HvPPA were eluted in Tris-salt buffer with a 25 ml gradient from 40 mM to 500 mM imidazole. […] Purity of HvPPA was assessed by Coomassie Blue stained SDS-PAGE gels and PPi activity assay. […]

| Protein | Pi detected by colorimetric (malachite green) assay in the HvPPA-coupled adenylation assay [1] | Pi detected by colorimetric (malachite green) assay in the HvPPA-coupled adenylation assay [2] | binding result [3] |
| --- | --- | --- | --- |
| B1 | Deletion of the C-terminal diglycine residues of SAMP1 (ΔGG) were found to significantly reduce the level of Pi detected by this assay | Significant levels of Pi were detected when UbaA and HvPPA were coupled with ATP and SAMP1 in the reaction |  |
| B2 |  |  | binds |
